Data: US11421029 (SICHUAN KELUN BIOTECH BIOPHARMACEUTICAL, dated 2022)

T1: recombinant CTLA-4-His protein (UniProt P16410 36-161, limits assumed)
T1 construct: Obtained from Kelun-Biotech; only the UniProt entry is named; also called CLTA-4-His; not shown: His tag
T1 sequence (looked up): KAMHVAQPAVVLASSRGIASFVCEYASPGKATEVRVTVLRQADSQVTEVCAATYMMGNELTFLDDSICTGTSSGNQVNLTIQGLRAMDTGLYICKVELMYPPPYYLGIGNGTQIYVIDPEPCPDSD


What was measured:
[1] = molecular target: PDL-1 expressed on CHO-PDL-1-CD3L cells (UniProt Q9NZQ7 19-290, limits assumed); assay: cell-based or functional assay
[2] = molecular target: T2, recombinant PDL-1-mFc protein (UniProt Q9NZQ7 19-238); assay: competitive ELISA: PD1-hFc coated, antibody premixed with PDL-1-mFc, anti-mouse IgG-HRP detection; competitor PD1-hFc
T2 construct: Obtained from Kelun-Biotech; only the UniProt entry is named; not shown: mFc part
Method: The recombinant PD1-hFc protein (purchased from Sino Biological Inc.) was added into a 96-well enzyme labeled plate (purchased from Thermo) at 100 ng/well, and the coating was carried out at 4° C. overnight. On the next day, the solution in the wells was discarded and wells were washed one time with washing buffer (phosphate buffer solution containing 0.05% Tween-20) and the solution in the wells was discarded again. PBS solution containing 2% BSA was added at 100 μl/well for blocking the wells at 37° C. for 2 hours, and then the solution in the wells was discarded. […] The plate was incubated at 37° C. for 2 hours, then the solution in the wells was discarded and the well was washed with the washing buffer for three times. HRP conjugated goat anti-mouse IgG(H+L) (purchased from Thermo) solution was added into the plate at 100 μl/well and the plate was incubated at 37° C. for 1 hour. TMB solution was added to the wells, and the reaction was carried out at room temperature for about 5 minutes. Stop solution was added to the plate, and then the plate was put into an ELISA instrument in order to read an OD450 light absorbance value.

[3] = molecular target: T3, recombinant CD16a (Val) protein (UniProt P08637 17-208, limits assumed); assay: ELISA: CD16a (Val) coated, antibody crosslinked with goat F(ab)2 anti-human kappa
T3 construct: Purchased from Sino Biological Inc. '(Val)' is printed without the position of the valine
Method: The recombinant CD16a (Val) protein (purchased from Sino Biological Inc.) was added into a 96-well enzyme labeled plate (purchased from Thermo) at 100 ng/well, and coating was carried out at 4° C. overnight. On the next day, the solution in the wells was discarded, the wells were washed with a washing buffer solution (a phosphate buffer solution containing 0.05% Tween-20) for one time and the solution in the wells was discarded. PBS solution containing 2% BSA was added at 100 μl/well for blocking the well at 25° C. for 2 hours, and then solution in the wells was discarded. […] The plate was incubated at 25° C. for 2 hours, then the solution in the wells was discarded and the well was washed with the washing buffer for three times. […] Then solution in the well was discarded and the well was washed with the washing buffer for five times. TMB solution was added to the well at a concentration of 100 μl/well, and the reaction was carried out at room temperature for about 30 minutes. Stop solution at 100 μl/well was added to the plate, and then the plate was put into an ELISA instrument to read OD450 absorbance values.

[4] = molecular target: T2, recombinant PDL-1-mFc protein; assay: ELISA: PDL-1-mFc coated, anti-human IgG-HRP detection
Method: On the next day, the solution in the wells was discarded, and the wells were washed with a washing buffer (a phosphate buffer solution containing 0.05% Tween-20) for one time and the solution in the wells was discarded. PBS solution containing 2% BSA was added at 100 μl/well and the wells were blocked at […] for 2 hours. Then the solution in the well was discarded. […] The plate was incubated at 37° C. for 2 hours, then the solution in the wells was discarded and the wells were washed for three times. HRP conjugated goat anti-human IgG(H+L) was added into the plate at 100 μl/well and the plate was incubated at 37° C. for 1 hour. TMB solution was added to the wells at a concentration of 100 μl/well, and the reaction was carried out at room temperature for about 5 minutes. A stop solution at 100 μl/well was added to the plate, and then the plate was put into an ELISA plate reader reading OD450 absorbance values.

[5] = molecular target: T1, recombinant CTLA-4-His protein; assay: ELISA: CTLA-4-His batch 1 coated, anti-human IgG-HRP detection
Method: (§1) Two batches of recombinant CLTA-4-His proteins (obtained from Kelun-Biotech, Uniport No.: P16410) were diluted with PBS respectively, the dilutes of CTLA-4-His at 100 μl/well were added into a 96-well ELISA plate, and coating was carried out at 4° C. overnight. On the next day, the solution in the wells was discarded, and wells were washed one time with washing buffer and the solution in the wells was discarded again. PBS solution containing 2% BSA was added at 100 μl/well for blocking the well at 37° C. for 2 hours, and then the solution in the well was discarded. […] The HRP conjugated goat anti-human IgG (H+L) solution was added into the plate and the plate was incubated at 37° C. for 1 hour. TMB solution was added to the well, and the reaction was carried out at room temperature for about 8 minutes. The stop solution was added to the plate, and then the plate was put into an ELISA plate reader to read OD450 absorbance values. Fitting curves were made by the means of the experimental data, as shown in FIG. 4A and FIG. 4B, and EC50 was calculated.

[6] = molecular target: T1, recombinant CTLA-4-His protein; assay: ELISA: CTLA-4-His batch 2 coated, anti-human IgG-HRP detection
Method: as §1

[7] = molecular target: T2, recombinant PDL-1-mFc protein; assay: bridging ELISA for both antigens at once: PDL-1-mFc coated, antibody titrated, then 1.5 ug/ml CTLA-4-His, anti-His-HRP detection
Method: On the next day, the solution in the wells was discarded, wells were washed one time with washing buffer (phosphate buffer solution containing 0.05% Tween-20) and solution in the well was discarded again. PBS solution containing 2% BSA was added at 100 μl/well for blocking the wells at 37° C. for 2 hours, and then solution in the wells was discarded. The recombinant bispecific antibodies were diluted 5 folds serially at a start concentration of 100000 ng/mL to get 11 concentration gradients, and were added to the wells at 100 μl/well. The plate was incubated at 37° C. for 2 hours, then the solution in the wells was discarded and wells were washed with the washing buffer for three times. 1.5 ug/ml of the CTLA-4-His protein was added into the plate at 100 μl/well, and plate was incubated at 37° C. for 2 hours. Then the solution in the wells was discarded and wells were washed with the washing buffer for three times. HRP conjugated goat anti-his (purchased from BioLegend) was added into the plate and the plate was incubated at 37° C. for 1 hour. TMB solution was added to the wells, and the reaction was carried out at room temperature for about 5 minutes. Stop solution was added to the plate, and then the plate was put into an ELISA plate reader to read OD450 absorbance values.

[8] = molecular target: T1, recombinant CTLA-4-His protein; assay: ELISA: CTLA-4-His coated; reference AB02
Method: as §1

T2 sequence (Q9NZQ7 19-238): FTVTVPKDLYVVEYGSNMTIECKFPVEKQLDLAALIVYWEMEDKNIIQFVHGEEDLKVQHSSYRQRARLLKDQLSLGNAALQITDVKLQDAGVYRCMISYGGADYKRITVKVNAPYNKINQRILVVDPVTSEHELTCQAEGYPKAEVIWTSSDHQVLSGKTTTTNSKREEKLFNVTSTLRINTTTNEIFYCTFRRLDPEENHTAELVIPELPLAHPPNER
Sequence of PDL-1 expressed on CHO-PDL-1-CD3L cells (Q9NZQ7 19-290 limits assumed): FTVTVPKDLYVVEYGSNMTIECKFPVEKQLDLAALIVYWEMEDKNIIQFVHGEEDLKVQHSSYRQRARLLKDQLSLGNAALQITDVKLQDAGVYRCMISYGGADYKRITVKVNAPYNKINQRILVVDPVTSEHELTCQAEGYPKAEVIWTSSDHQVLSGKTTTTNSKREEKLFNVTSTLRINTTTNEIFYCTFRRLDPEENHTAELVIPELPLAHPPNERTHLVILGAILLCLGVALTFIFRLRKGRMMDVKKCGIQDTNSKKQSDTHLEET
T3 sequence (P08637 17-208 F176V limits assumed): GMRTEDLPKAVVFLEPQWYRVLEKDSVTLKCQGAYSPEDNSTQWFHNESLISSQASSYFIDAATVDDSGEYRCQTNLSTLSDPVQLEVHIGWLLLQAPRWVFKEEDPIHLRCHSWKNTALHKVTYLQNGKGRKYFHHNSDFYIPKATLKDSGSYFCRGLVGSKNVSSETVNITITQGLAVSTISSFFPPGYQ

| Binder | EC50 of blocking PDL-1/PD1 in the luciferase (NFAT) reporter assay [1] | EC50 [2] | binding result [3] | EC50 [4] | EC50 [5] | EC50 [6] | EC50 [7] | EC50 as a multiple of that of AB02 [8] |
| --- | --- | --- | --- | --- | --- | --- | --- | --- |
| anti-PDL-1 parental antibody AB01 (antibody, human IgG1, kappa, also called PDL-1 antibody AB01) heavy: not shown light: EIVLTQSPDTLSVTPKEKVTLTCRASQSIGTNIHWFQQKPGQSPKLLIKYASESISGVPSRFSGSGSGTDFTLTINSVEAEDAATYYCQQSNSWPYTFGQGTKLEIKRTVAAPSVFIFPPSDEQLKSGTASVVCLLNNFYPREAKVQWKVDNALQSGNSQESVTEQDSKDSTYSLSSTLTLSKADYEKHKVYACEVTHQGLSSPVTKSFNRGEC | 1.68 nM | 3.82 nM | no binding (tested: 50 ug/ml, then 3-fold dilutions) | 0.0155 nM | – | – | – | – |
| anti-PDL-1/CTLA-4 recombinant bispecific antibody AB04 (bispecific antibody, human IgG1, kappa, The scFv is at the C-terminus of the heavy chain; also called AB4) heavy: not shown light: EIVLTQSPDTLSVTPKEKVTLTCRASQSIGTNIHWFQQKPGQSPKLLIKYASESISGVPSRFSGSGSGTDFTLTINSVEAEDAATYYCQQSNSWPYTFGQGTKLEIKRTVAAPSVFIFPPSDEQLKSGTASVVCLLNNFYPREAKVQWKVDNALQSGNSQESVTEQDSKDSTYSLSSTLTLSKADYEKHKVYACEVTHQGLSSPVTKSFNRGEC | 1.53 nM | 1.84 nM | binds | 0.0324 nM | 0.6 nM | 0.531 nM | 0.013 nM | 10 to 12 times |
| anti-PDL-1/CTLA-4 recombinant bispecific antibody AB03 (bispecific antibody, human IgG1, kappa, The scFv is at the N-terminus of the heavy chain; also called AB003) heavy: not shown light: EIVLTQSPDTLSVTPKEKVTLTCRASQSIGTNIHWFQQKPGQSPKLLIKYASESISGVPSRFSGSGSGTDFTLTINSVEAEDAATYYCQQSNSWPYTFGQGTKLEIKRTVAAPSVFIFPPSDEQLKSGTASVVCLLNNFYPREAKVQWKVDNALQSGNSQESVTEQDSKDSTYSLSSTLTLSKADYEKHKVYACEVTHQGLSSPVTKSFNRGEC | 1.82 nM | 2.6 nM | binds | 0.0215 nM | 0.107 nM | 0.0862 nM | 0.0162 nM | – |
